Test results taken from publication PMC3314502.

Target: FLAG-PICK1 (rat) (UniProt Q9EP80)
Test: pull-down

UniProt Q9EP80, sequence (Q9EP80 whole entry): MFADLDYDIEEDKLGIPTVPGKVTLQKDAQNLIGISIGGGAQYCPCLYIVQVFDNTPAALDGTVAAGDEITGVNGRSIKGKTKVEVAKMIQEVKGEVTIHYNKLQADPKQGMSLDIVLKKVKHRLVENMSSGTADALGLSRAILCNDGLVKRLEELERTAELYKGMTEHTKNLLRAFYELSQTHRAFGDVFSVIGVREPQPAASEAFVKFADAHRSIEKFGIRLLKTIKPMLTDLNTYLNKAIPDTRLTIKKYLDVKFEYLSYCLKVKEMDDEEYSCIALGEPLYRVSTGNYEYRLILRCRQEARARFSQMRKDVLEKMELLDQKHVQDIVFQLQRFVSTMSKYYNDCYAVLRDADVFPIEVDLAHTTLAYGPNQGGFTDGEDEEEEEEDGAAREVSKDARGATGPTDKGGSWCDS

percent of PICK1 retained by GST-ct-GluR5 (2b) with the peptide: 8%
Substance: pep2-EVKI, point mutant of the C-terminal 11 amino acids of GluR2 (from UniProt P19491 873-883) (peptide)
